Paper PMC4156074 (2014)

Biological target: Full-length human plasma kallikrein, activated form (human, UniProt P03952 20-390; P03952 391-638)
Assay: apparent Ki

Full-length human plasma kallikrein, activated form, sequence (P03952 20-390, chain 1 of 2): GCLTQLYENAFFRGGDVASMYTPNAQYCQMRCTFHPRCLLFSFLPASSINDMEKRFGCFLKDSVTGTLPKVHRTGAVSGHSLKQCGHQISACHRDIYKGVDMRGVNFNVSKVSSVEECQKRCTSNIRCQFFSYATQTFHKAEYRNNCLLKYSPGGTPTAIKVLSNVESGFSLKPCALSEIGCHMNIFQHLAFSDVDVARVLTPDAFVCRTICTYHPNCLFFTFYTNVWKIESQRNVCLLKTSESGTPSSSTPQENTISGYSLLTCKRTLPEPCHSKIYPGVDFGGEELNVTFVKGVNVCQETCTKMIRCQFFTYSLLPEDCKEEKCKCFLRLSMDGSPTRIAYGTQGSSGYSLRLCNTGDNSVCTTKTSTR
Full-length human plasma kallikrein, activated form, sequence (P03952 391-638, chain 2 of 2): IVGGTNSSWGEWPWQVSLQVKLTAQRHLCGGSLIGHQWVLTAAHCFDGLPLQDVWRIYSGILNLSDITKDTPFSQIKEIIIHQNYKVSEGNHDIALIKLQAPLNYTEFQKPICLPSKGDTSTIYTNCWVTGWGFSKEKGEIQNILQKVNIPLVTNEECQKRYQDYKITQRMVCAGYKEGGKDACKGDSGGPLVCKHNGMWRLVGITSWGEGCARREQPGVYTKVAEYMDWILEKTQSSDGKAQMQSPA

Ki: 5.39 nM
B1: Fab M0162-A04 (lead Fab, parent of the affinity maturation) (Fab, V domains shown)
VH: EVQLLESGGGLVQPGGSLRLSCAASGFTFSHYIMMWVRQAPGKGLEWVSGIYSSGGITVYADSVKGRFTISRDNSKNTLYLQMNSLRAEDTAVYYCAYRRTGIPRRDAFDIWGQGTMVTVSS
VL: DIQMTQSPSTLSASVGDRVTITCRASQSISSWLAWYQQKPGKAPNLLIYKASTLESGVPSRFSGSGSGTEFTLTISSLQPDDFATYYCQQYNTYWTFGQGTKVEIK
